The values below come from article PMC3722578 (FEBS Open Bio, 2013).

The data set deals with the molecule itself. In words: SEC. Background: SEC sorts molecules by how far they enter the pores of the column.

B1: PKD1 domain from Vibrio cholerae metalloprotease PrtV (residues Glu755-Asn839) (domain or fragment)
chain: GAMENIAPVARFELKVEGLSVMSQNTSSDSDGNIVSYLWDFGNGQTSTEAAPTWSYTKAGSYSVTLTVTDDKGDSDTHQQTIKVDTPN
For B1, the stoichiometry N (as a rule, a count of units in the complex or per binding partner) was 2.
